Like-named read-outs stand apart in the source and are kept apart here.
Columns and labels:
SEC [1] = molecular target: the molecule itself; test: SEC
crystal structure = molecular target: the molecule itself; test: crystal structure
SEC [2] = molecular target: the molecule itself; test: SEC; remark: listed apart in the source
SEC [3] = molecular target: the molecule itself; test: SEC; remark: listed apart in the source

B1: KcsA W67F channel, locked open (disulfide cross-linked open-state construct) (natural protein, UniProt P0A334 21-125, looked up)
chain: GSALQWRCAGAATVLLVIVLLAGSYLAVLAERGAPGAQLITYPRALFWSVETATTVGYGDLYPVTLWGRLVAVVVMVAGITSFGLVTAALATWFVGQCQQQQGHF
modifications: Cys mutant channels in the cross-linked state (disulfide crosslink between subunits)
stoichiometry N (SEC [1]): 4

B2: KcsA WT channel trapped with the activation gate open (disulfide cross-linked open-state construct) (natural protein, UniProt P0A334 21-125, looked up)
chain: GSALQWRCAGAATVLLVIVLLAGSYLAVLAERGAPGAQLITYPRALWWSVETATTVGYGDLYPVTLWGRLVAVVVMVAGITSFGLVTAALATWFVGQCQQQQGHF
modifications: Cys mutant channels in the cross-linked state (disulfide crosslink between subunits)
binding result (crystal structure): binds

B3: KcsA W67F channel (natural protein, UniProt P0A334 1-125, looked up)
chain: MPPMLSGLLARLVKLLLGRHGSALHWRAAGAATVLLVIVLLAGSYLAVLAERGAPGAQLITYPRALFWSVETATTVGYGDLYPVTLWGRLVAVVVMVAGITSFGLVTAALATWFVGREQERRGHF
stoichiometry N (SEC [2]): 4

B4: KcsA W67F/F103A channel (natural protein, UniProt P0A334 1-125, looked up)
chain: MPPMLSGLLARLVKLLLGRHGSALHWRAAGAATVLLVIVLLAGSYLAVLAERGAPGAQLITYPRALFWSVETATTVGYGDLYPVTLWGRLVAVVVMVAGITSAGLVTAALATWFVGREQERRGHF
binding result (SEC [1]): binds

B5: KcsA Y82A channel (natural protein, UniProt P0A334 1-125, looked up)
chain: MPPMLSGLLARLVKLLLGRHGSALHWRAAGAATVLLVIVLLAGSYLAVLAERGAPGAQLITYPRALWWSVETATTVGYGDLAPVTLWGRLVAVVVMVAGITSFGLVTAALATWFVGREQERRGHF
stoichiometry N (SEC [3]): 4
